How the values were obtained:
[1] = target: HIV-1 93TH057 gp120 coree (HIV-1); assay: EBI PISA on PDB 3ngb (structure not solved in this filing)
[2] = target: monomeric HIV-1 Ba-L gp120 (HIV-1 Ba-L); assay: retention on the gp120 affinity column
[3] = target: HIV-1 Env pseudovirus C4118.c09 (HIV-1); assay: cell-based or functional assay
[4] = target: HIV-1 Env pseudovirus 231966.c02 (HIV-1); assay: cell-based or functional assay
[5] = target: HIV-1 Env pseudovirus X1254_c3 (HIV-1); assay: cell-based or functional assay
[6] = target: HIV-1 Env pseudovirus R2184.c04 (HIV-1); assay: cell-based or functional assay
[7] = target: HIV-1 Env pseudovirus 3817.v2.c59 (HIV-1); assay: cell-based or functional assay
[8] = target: HIV-1 Env pseudovirus 6952.v1.c20 (HIV-1); assay: cell-based or functional assay
[9] = target: HIV-1 Env pseudovirus X2131_C1_B5 (HIV-1); assay: cell-based or functional assay
[10] = target: HIV-1 Env pseudovirus 6540.v4.c1 (HIV-1); assay: cell-based or functional assay
[11] = target: HIV-1 Env pseudovirus 6480.v4.c25 (HIV-1); assay: cell-based or functional assay
[12] = target: HIV-1 Env pseudovirus T278-50 (HIV-1); assay: cell-based or functional assay
[13] = target: HIV-1 Env pseudovirus 3103.v3.c10 (HIV-1); assay: cell-based or functional assay
[14] = target: HIV-1 Env pseudovirus BJOX028000.10.3 (HIV-1); assay: cell-based or functional assay
[15] = target: HIV-1 Env pseudovirus BJOX015000.11.5 (HIV-1); assay: cell-based or functional assay
[16] = target: HIV-1 Env pseudovirus 3016.v5.c45 (HIV-1); assay: cell-based or functional assay
[17] = target: HIV-1 Env pseudovirus 3301.v1.c24 (HIV-1); assay: cell-based or functional assay
[18] = target: HIV-1 Env pseudovirus X2088_c9 (HIV-1); assay: cell-based or functional assay
[19] = target: HIV-1 Env pseudovirus 235-47 (HIV-1); assay: cell-based or functional assay
[20] = target: HIV-1 Env pseudovirus 231965.c01 (HIV-1); assay: cell-based or functional assay
[21] = target: HIV-1 Env pseudovirus 89-F1_2_25 (HIV-1); assay: cell-based or functional assay
[22] = target: HIV-1 Env pseudovirus 0815.v3.c3 (HIV-1); assay: cell-based or functional assay
[23] = target: HIV-1 Env pseudovirus BJOX025000.01.1 (HIV-1); assay: cell-based or functional assay
[24] = target: HIV-1 Env pseudovirus X1193_c1 (HIV-1); assay: cell-based or functional assay
[25] = target: HIV-1 Env pseudovirus T255-34 (HIV-1); assay: cell-based or functional assay
[26] = target: HIV-1 Env pseudovirus T251-18 (HIV-1); assay: cell-based or functional assay
[27] = target: HIV-1 Env pseudovirus P0402_c2_11 (HIV-1); assay: cell-based or functional assay
[28] = target: HIV-1 Env pseudovirus 6545.v4.c1 (HIV-1); assay: cell-based or functional assay
[29] = target: HIV-1 Env pseudovirus X1632_S2_B10 (HIV-1); assay: cell-based or functional assay
[30] = target: HIV-1 Env pseudovirus R1166.c01 (HIV-1); assay: cell-based or functional assay
[31] = target: HIV-1 Env pseudovirus P1981_C5_3 (HIV-1); assay: cell-based or functional assay
[32] = target: HIV-1 Env pseudovirus 6811.v7.c18 (HIV-1); assay: cell-based or functional assay
[33] = target: HIV-1 Env pseudovirus C1080.c03 (HIV-1); assay: cell-based or functional assay
[34] = target: HIV-1 Env pseudovirus 211-9 (HIV-1); assay: cell-based or functional assay
[35] = target: HIV-1 Env pseudovirus R3265.c06 (HIV-1); assay: cell-based or functional assay
[36] = target: HIV-1 Env pseudovirus C3347.c11 (HIV-1); assay: cell-based or functional assay
[37] = target: HIV-1 Env pseudovirus T250-4 (HIV-1); assay: cell-based or functional assay
[38] = target: HIV-1 Env pseudovirus C2101.c01 (HIV-1); assay: cell-based or functional assay
[39] = target: HIV-1 Env pseudovirus 620345.c01 (HIV-1); assay: cell-based or functional assay
[40] = target: HIV-1 Env pseudovirus BJOX009000.02.4 (HIV-1); assay: cell-based or functional assay
[41] = target: HIV-1 Env pseudovirus 6041.v3.c23 (HIV-1); assay: cell-based or functional assay
[42] = target: HIV-1 Env pseudovirus A07412M1.vrc12 (HIV-1); assay: cell-based or functional assay
[43] = target: HIV-1 Env pseudovirus BJOX010000.06.2 (HIV-1); assay: cell-based or functional assay
[44] = target: HIV-1 Env pseudovirus CNE5 (HIV-1); assay: cell-based or functional assay
[45] = target: HIV-1 93TH057 gp120 coree (HIV-1); assay: EBI PISA on PDB 5te6 (structure not solved in this filing)

VRC01 Fab
buried surface area, CDR H3 [1]: 160 Å^2

Synagis (antibody)
recovery on the gp120 affinity column [2]: < 1%

45-46 (antibody)
IC50 (Titer in TZM.bl cells) [3]: 0.14 µg/mL | IC80 (Titer in TZM.bl cells) [3]: 0.91 µg/mL | IC50 (Titer in TZM.bl cells) [4]: 1.11 µg/mL | IC80 (Titer in TZM.bl cells) [4]: 11.4 µg/mL | IC50 (Titer in TZM.bl cells) [5]: 0.08 µg/mL | IC80 (Titer in TZM.bl cells) [5]: 0.08 µg/mL | IC50 (Titer in TZM.bl cells) [6]: 0.03 µg/mL | IC80 (Titer in TZM.bl cells) [6]: 0.12 µg/mL | IC50 (Titer in TZM.bl cells) [7]: > 50 µg/mL | IC80 (Titer in TZM.bl cells) [7]: > 50 µg/mL | IC50 (Titer in TZM.bl cells) [8]: 0.02 µg/mL | IC80 (Titer in TZM.bl cells) [8]: 0.07 µg/mL | IC50 (Titer in TZM.bl cells) [9]: 0.2 µg/mL | IC80 (Titer in TZM.bl cells) [9]: 0.9 µg/mL | IC50 (Titer in TZM.bl cells) [10]: > 50 µg/mL | IC80 (Titer in TZM.bl cells) [10]: > 50 µg/mL | IC50 (Titer in TZM.bl cells) [11]: 0.02 µg/mL | IC80 (Titer in TZM.bl cells) [11]: 0.08 µg/mL | IC50 (Titer in TZM.bl cells) [12]: > 30 µg/mL | IC80 (Titer in TZM.bl cells) [12]: > 30 µg/mL | IC50 (Titer in TZM.bl cells) [13]: 1.66 µg/mL | IC80 (Titer in TZM.bl cells) [13]: 6.57 µg/mL | IC50 (Titer in TZM.bl cells) [14]: 0.07 µg/mL | IC80 (Titer in TZM.bl cells) [14]: > 50 µg/mL | IC50 (Titer in TZM.bl cells) [15]: 0.06 µg/mL | IC80 (Titer in TZM.bl cells) [15]: 0.38 µg/mL | IC50 (Titer in TZM.bl cells) [16]: > 30 µg/mL | IC80 (Titer in TZM.bl cells) [16]: > 30 µg/mL | IC50 (Titer in TZM.bl cells) [17]: 0.01 µg/mL | IC80 (Titer in TZM.bl cells) [17]: 0.03 µg/mL | IC50 (Titer in TZM.bl cells) [18]: > 50 µg/mL | IC80 (Titer in TZM.bl cells) [18]: > 50 µg/mL | IC50 (Titer in TZM.bl cells) [19]: 0.3 µg/mL | IC80 (Titer in TZM.bl cells) [19]: 1.49 µg/mL | IC50 (Titer in TZM.bl cells) [20]: 0.1 µg/mL | IC80 (Titer in TZM.bl cells) [20]: 0.1 µg/mL | IC50 (Titer in TZM.bl cells) [21]: > 50 µg/mL | IC80 (Titer in TZM.bl cells) [21]: > 50 µg/mL | IC50 (Titer in TZM.bl cells) [22]: 0.01 µg/mL | IC80 (Titer in TZM.bl cells) [22]: 0.03 µg/mL | IC50 (Titer in TZM.bl cells) [23]: 0.18 µg/mL | IC80 (Titer in TZM.bl cells) [23]: 10 µg/mL | IC50 (Titer in TZM.bl cells) [24]: 0.04 µg/mL | IC80 (Titer in TZM.bl cells) [24]: 0.16 µg/mL | IC50 (Titer in TZM.bl cells) [25]: 0.23 µg/mL | IC80 (Titer in TZM.bl cells) [25]: 2.38 µg/mL | IC50 (Titer in TZM.bl cells) [26]: 5.26 µg/mL | IC80 (Titer in TZM.bl cells) [26]: 5.26 µg/mL | IC50 (Titer in TZM.bl cells) [27]: 0.06 µg/mL | IC80 (Titer in TZM.bl cells) [27]: 0.26 µg/mL | IC50 (Titer in TZM.bl cells) [28]: > 50 µg/mL | IC80 (Titer in TZM.bl cells) [28]: > 50 µg/mL | IC50 (Titer in TZM.bl cells) [29]: 0.07 µg/mL | IC80 (Titer in TZM.bl cells) [29]: > 50 µg/mL | IC50 (Titer in TZM.bl cells) [30]: 1.68 µg/mL | IC80 (Titer in TZM.bl cells) [30]: 1.68 µg/mL | IC50 (Titer in TZM.bl cells) [31]: 0.05 µg/mL | IC80 (Titer in TZM.bl cells) [31]: 0.22 µg/mL | IC50 (Titer in TZM.bl cells) [32]: 0.03 µg/mL | IC80 (Titer in TZM.bl cells) [32]: 0.13 µg/mL | IC50 (Titer in TZM.bl cells) [33]: 1.79 µg/mL | IC80 (Titer in TZM.bl cells) [33]: 18 µg/mL | IC50 (Titer in TZM.bl cells) [34]: > 50 µg/mL | IC80 (Titer in TZM.bl cells) [34]: > 50 µg/mL | IC50 (Titer in TZM.bl cells) [35]: 0.04 µg/mL | IC80 (Titer in TZM.bl cells) [35]: 0.44 µg/mL | IC50 (Titer in TZM.bl cells) [36]: 0.03 µg/mL | IC80 (Titer in TZM.bl cells) [36]: 0.18 µg/mL | IC50 (Titer in TZM.bl cells) [37]: > 30 µg/mL | IC80 (Titer in TZM.bl cells) [37]: > 30 µg/mL | IC50 (Titer in TZM.bl cells) [38]: 12.8 µg/mL | IC80 (Titer in TZM.bl cells) [38]: > 50 µg/mL | IC50 (Titer in TZM.bl cells) [39]: > 30 µg/mL | IC80 (Titer in TZM.bl cells) [39]: > 30 µg/mL | IC50 (Titer in TZM.bl cells) [40]: 0.26 µg/mL | IC80 (Titer in TZM.bl cells) [40]: 1.16 µg/mL | IC50 (Titer in TZM.bl cells) [41]: 0.01 µg/mL | IC80 (Titer in TZM.bl cells) [41]: 0.04 µg/mL | IC50 (Titer in TZM.bl cells) [42]: 0.03 µg/mL | IC80 (Titer in TZM.bl cells) [42]: 0.13 µg/mL | IC50 (Titer in TZM.bl cells) [43]: 0.87 µg/mL | IC80 (Titer in TZM.bl cells) [43]: 6.37 µg/mL | IC50 (Titer in TZM.bl cells) [44]: 0.09 µg/mL | IC80 (Titer in TZM.bl cells) [44]: 0.41 µg/mL

N6 Fab
buried surface area, CDR H3 [45]: 123 Å^2
